Measured values reported in US20090118184A1 (UNIVERSITY OF ROCHESTER, published 2009).

What was measured:
Assay in all cases: cell-based or functional assay
[1] = biological target: T1, factor VIIIa A1/A3C1C2 dimer, E1829A (human, UniProt P00451 20-391; P00451 1709-2351)
T1 sequence 1: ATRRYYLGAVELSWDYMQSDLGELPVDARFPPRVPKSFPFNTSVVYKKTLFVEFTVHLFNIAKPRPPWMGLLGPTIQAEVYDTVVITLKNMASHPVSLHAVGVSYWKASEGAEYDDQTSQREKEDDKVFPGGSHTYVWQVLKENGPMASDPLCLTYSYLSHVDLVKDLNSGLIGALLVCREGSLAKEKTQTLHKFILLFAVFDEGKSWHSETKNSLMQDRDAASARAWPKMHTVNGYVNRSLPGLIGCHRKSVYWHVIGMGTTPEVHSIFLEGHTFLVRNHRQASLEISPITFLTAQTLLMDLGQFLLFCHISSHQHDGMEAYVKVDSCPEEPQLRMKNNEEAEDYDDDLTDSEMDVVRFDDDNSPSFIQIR
T1 sequence 2: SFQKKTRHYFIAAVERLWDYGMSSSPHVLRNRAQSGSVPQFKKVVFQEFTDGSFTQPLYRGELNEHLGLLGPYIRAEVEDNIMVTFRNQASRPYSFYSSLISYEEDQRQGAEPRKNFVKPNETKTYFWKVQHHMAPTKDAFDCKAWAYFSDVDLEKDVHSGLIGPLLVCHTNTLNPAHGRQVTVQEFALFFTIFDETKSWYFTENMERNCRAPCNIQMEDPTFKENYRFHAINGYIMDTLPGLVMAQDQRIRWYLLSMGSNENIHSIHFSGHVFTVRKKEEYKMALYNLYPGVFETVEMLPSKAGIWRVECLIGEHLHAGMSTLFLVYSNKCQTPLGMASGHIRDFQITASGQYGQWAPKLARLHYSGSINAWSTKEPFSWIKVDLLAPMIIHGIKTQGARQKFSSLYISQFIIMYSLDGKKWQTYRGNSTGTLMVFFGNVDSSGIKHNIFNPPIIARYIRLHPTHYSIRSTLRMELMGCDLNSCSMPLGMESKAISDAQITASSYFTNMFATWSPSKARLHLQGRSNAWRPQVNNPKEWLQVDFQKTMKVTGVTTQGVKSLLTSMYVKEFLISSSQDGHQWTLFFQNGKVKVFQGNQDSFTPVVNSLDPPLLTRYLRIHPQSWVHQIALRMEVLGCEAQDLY

[2] = biological target: T2, factor VIIIa A1/A3C1C2 dimer, wild type (human, UniProt P00451 20-391; P00451 1709-2351)
T2 sequence 1: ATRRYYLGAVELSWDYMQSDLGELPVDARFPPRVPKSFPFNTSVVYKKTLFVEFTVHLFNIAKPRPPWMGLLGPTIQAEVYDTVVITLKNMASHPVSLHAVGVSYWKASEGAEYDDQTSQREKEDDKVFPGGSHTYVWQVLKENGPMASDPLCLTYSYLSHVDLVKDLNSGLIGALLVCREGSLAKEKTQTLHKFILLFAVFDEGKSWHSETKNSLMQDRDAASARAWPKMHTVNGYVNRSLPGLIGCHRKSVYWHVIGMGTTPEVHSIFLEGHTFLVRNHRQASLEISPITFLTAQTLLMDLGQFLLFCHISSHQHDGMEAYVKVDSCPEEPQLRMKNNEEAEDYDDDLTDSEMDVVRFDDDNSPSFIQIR
T2 sequence 2: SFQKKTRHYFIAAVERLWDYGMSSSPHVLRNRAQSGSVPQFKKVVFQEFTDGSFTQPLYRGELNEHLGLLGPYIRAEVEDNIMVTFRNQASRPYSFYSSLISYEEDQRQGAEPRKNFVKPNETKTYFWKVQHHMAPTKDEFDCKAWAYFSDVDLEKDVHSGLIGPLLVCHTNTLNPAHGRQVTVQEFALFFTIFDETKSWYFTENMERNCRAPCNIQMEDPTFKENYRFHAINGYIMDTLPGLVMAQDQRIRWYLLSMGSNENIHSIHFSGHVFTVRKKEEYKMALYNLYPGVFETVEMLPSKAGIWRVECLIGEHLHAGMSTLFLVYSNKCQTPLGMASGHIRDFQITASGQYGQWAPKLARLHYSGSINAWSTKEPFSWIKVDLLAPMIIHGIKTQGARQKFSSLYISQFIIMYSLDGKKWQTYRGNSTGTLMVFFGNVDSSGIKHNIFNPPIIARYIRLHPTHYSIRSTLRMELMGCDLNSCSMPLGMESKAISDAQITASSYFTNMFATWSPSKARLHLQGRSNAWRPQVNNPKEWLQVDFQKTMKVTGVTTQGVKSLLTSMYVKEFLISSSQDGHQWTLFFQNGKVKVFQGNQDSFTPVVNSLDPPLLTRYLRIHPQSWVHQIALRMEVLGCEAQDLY

[3] = biological target: T3, factor VIIIa A1/A3C1C2 dimer, Glu272Val (human, UniProt P00451 20-391; P00451 1709-2351)
T3 chain 1: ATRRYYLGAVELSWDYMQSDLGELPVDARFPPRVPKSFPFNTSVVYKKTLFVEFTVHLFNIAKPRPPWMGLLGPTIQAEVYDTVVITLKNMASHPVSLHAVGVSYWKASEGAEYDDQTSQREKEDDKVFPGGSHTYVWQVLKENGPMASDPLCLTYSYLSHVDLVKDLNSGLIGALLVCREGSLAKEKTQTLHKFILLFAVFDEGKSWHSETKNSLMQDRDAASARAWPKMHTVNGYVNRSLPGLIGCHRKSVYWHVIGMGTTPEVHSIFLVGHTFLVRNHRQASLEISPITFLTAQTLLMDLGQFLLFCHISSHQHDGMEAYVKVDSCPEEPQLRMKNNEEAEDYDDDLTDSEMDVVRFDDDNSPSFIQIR
T3 chain 2: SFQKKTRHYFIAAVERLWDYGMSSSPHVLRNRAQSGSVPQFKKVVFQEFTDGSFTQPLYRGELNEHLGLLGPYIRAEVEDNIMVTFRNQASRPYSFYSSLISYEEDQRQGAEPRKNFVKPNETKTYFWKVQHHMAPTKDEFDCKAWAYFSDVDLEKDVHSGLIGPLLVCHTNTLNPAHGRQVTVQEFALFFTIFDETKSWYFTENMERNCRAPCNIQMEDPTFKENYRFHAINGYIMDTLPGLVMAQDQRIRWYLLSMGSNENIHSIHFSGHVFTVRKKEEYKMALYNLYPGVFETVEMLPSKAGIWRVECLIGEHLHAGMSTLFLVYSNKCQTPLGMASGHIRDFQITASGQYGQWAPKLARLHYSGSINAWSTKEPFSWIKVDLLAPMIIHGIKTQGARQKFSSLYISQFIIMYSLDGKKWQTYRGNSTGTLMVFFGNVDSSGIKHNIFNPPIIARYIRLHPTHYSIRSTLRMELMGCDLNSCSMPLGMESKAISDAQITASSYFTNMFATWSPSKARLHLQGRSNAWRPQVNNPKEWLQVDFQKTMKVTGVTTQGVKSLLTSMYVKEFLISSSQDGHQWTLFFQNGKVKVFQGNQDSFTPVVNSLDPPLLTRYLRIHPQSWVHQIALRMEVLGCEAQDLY

[4] = biological target: T4, factor VIIIa A1/A3C1C2 dimer, Glu1984Val (human, UniProt P00451 20-391; P00451 1709-2351)
T4 sequence 1: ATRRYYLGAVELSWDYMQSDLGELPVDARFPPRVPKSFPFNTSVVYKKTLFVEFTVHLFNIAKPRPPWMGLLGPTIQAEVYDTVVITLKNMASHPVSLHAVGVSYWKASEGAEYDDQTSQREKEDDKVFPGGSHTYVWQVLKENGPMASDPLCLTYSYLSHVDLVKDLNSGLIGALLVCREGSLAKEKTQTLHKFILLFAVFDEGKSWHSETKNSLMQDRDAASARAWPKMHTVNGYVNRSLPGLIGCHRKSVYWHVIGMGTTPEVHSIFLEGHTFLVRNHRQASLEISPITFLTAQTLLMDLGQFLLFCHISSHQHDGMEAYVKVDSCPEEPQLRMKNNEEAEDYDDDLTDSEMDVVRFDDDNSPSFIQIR
T4 sequence 2: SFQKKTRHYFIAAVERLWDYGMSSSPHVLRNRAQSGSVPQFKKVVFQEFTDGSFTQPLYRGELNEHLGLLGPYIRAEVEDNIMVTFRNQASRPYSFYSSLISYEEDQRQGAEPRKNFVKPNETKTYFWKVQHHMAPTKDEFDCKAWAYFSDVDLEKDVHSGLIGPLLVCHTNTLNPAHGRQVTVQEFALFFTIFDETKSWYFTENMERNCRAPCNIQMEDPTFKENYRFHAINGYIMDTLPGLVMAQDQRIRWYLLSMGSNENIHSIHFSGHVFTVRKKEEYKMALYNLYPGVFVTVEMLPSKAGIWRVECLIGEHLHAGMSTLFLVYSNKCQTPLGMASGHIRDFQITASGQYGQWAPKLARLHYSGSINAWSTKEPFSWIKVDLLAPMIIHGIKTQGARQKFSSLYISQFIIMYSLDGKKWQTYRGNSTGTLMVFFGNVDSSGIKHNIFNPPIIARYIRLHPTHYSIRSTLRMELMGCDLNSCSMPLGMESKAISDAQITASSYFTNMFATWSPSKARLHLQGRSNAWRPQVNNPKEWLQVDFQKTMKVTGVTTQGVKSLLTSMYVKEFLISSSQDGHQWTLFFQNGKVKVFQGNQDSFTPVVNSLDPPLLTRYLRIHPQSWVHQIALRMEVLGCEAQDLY

rate of factor VIIIa decay compared with WT, factor IXa present [1]: 5 fold | Factor VIIIa Decay relative to the WT value, Factor IXa absent [2]: 1 relative to WT | Factor VIIIa Decay relative to the WT value, Factor IXa present [2]: 1 relative to WT | Factor VIIIa Decay, Factor IXa absent [2]: 0.0836 min⁻¹ | Factor VIIIa Decay, Factor IXa present [2]: 0.0154 min⁻¹ | Factor VIIIa Decay relative to the WT value, Factor IXa absent [3]: 2.72 relative to WT | Factor VIIIa Decay relative to the WT value, Factor IXa present [3]: 1.03 relative to WT | Factor VIIIa Decay, Factor IXa absent [3]: 0.227 min⁻¹ | Factor VIIIa Decay, Factor IXa present [3]: 0.0159 min⁻¹ | Factor VIIIa Decay relative to the WT value, Factor IXa absent [4]: 0.26 relative to WT | Factor VIIIa Decay relative to the WT value, Factor IXa present [4]: 0.13 relative to WT | Factor VIIIa Decay, Factor IXa absent [4]: 0.0217 min⁻¹ | Factor VIIIa Decay, Factor IXa present [4]: 0.0019 min⁻¹
B1: factor VIIIa A2 subunit, wild type (other)
chain: SVAKKHPKTWVHYIAAEEEDWDYAPLVLAPDDRSYKSQYLNNGPQRIGRKYKKVRFMAYTDETFKTREAIQHESGILGPLLYGEVGDTLLIIFKNQASRPYNIYPHGITDVRPLYSRRLPKGVKHLKDFPILPGEIFKYKWTVTVEDGPTKSDPRCLTRYYSSFVNMERDLASGLIGPLLICYKESVDQRGNQIMSDKRNVILFSVFDENRSWYLTENIQRFLPNPAGVQLEDPEFQASNIMHSINGYVFDSLQLSVCLHEVAYWYILSIGAQTDFLSVFFSGYTFKHKMVYEDTLTLFPFSGETVFMSMENPGLWILGCHNSDFRNRGMTALLKVSSCDKNTGDYYEDSYEDISAYLLSKNNAIEPR
